How the values were obtained:
AP2-I D3 = AP2-I D3 (Plasmodium falciparum, UniProt Q8IJW6 910-1027); test: gcPBM; about 25 ug protein; PBS, 1% milk, 0.2 mg/ml BSA, salmon testes DNA, 0.03% Triton X-100; details: tags: N-terminal GST (pGEX-4T-1), kept; label: surface-attached array probe
SIP2 D1 = molecular target: T1, SIP2 D1 (Plasmodium falciparum, UniProt C6KSN9 177-235); test: as above; details: tags: N-terminal GST (pGEX-4T-1), kept; label: surface-attached array probe
T1 sequence: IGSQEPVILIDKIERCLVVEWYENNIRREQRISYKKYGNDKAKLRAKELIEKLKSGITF

Row | Binder | binding signal (AP2-I D3) | binding signal (SIP2 D1)
1 | GTGCAC_site9711 (dsDNA) DNA 1: TTAAATTATTAGAGAGTGCATTATATATATTATACA DNA 2: TGTATAATATATATAATGCACTCTCTAATAATTTAA | 12.1 ln median PBM intensity, better of two orientations | –
2 | GTGCAC_site9418 (dsDNA) DNA 1: ATGATATATTTAATAGTGCACTAATTAAAATTATTA DNA 2: TAATAATTTTAATTAGTGCACTATTAAATATATCAT | 12.4 ln median PBM intensity, better of two orientations | –
3 | GTGCAC_site9914 (dsDNA) DNA 1: TGGCTTTCCCTGCCGGTGCATTAACATTTTTTACAT DNA 2: ATGTAAAAAATGTTAATGCACCGGCAGGGAAAGCCA | 12.3 ln median PBM intensity, better of two orientations | –
4 | GTGCAC_site10569 (dsDNA) DNA 1: TACTATTATAAATATGTGCACTTCAATAATATACTA DNA 2: TAGTATATTATTGAAGTGCACATATTTATAATAGTA | – | 10.4 ln median PBM intensity, better of two orientations
5 | GTGCAC_site9795 (dsDNA) DNA 1: ATCATATTTATGTTGGTGCATTATGCATGGATTTTA DNA 2: TAAAATCCATGCATAATGCACCAACATAAATATGAT | 12.2 ln median PBM intensity, better of two orientations | –
6 | GTGCAC_site10388 (dsDNA) DNA 1: ATTATATTTATGTTGGTGCATTATACATGAAATTTA DNA 2: TAAATTTCATGTATAATGCACCAACATAAATATAAT | – | 10.2 ln median PBM intensity, better of two orientations
7 | GTGCAC_site9571 (dsDNA) DNA 1: ATCATATTTATATTGGTGCATTATGCATGAAATTTA DNA 2: TAAATTTCATGCATAATGCACCAATATAAATATGAT | 12.1 ln median PBM intensity, better of two orientations | –
8 | GTGCAC_site10298 (dsDNA) DNA 1: ATTTATTTCTTGTTAGTGCACTTTCTTTGGTAAAAT DNA 2: ATTTTACCAAAGAAAGTGCACTAACAAGAAATAAAT | 12.1 ln median PBM intensity, better of two orientations | –
9 | GTGCAC_site9937 (dsDNA) DNA 1: TTTCACATATATATGGTGCATATTTTATGTGTAAAT DNA 2: ATTTACACATAAAATATGCACCATATATATGTGAAA | – | 10.5 ln median PBM intensity, better of two orientations
10 | GTGCAC_site10146 (dsDNA) DNA 1: GAGGTACATTAATTAGTGCATTAAAATTTTTATCCT DNA 2: AGGATAAAAATTTTAATGCACTAATTAATGTACCTC | 12.2 ln median PBM intensity, better of two orientations | –
11 | GTGCAC_site10275 (dsDNA) DNA 1: AATATTCATATGCAGGTGCATTAATTTTTATTAATT DNA 2: AATTAATAAAAATTAATGCACCTGCATATGAATATT | 12.2 ln median PBM intensity, better of two orientations | –
12 | GTGCAC_site10274 (dsDNA) DNA 1: CAACCTTTTTTGTTGGTGCATAATTTTTTTTTCTTT DNA 2: AAAGAAAAAAAAATTATGCACCAACAAAAAAGGTTG | – | 10.2 ln median PBM intensity, better of two orientations
13 | GTGCAC_site10285 (dsDNA) DNA 1: CATAAATAAGCTTTAGTGCATTATATTTAAATTTTT DNA 2: AAAAATTTAAATATAATGCACTAAAGCTTATTTATG | 12.2 ln median PBM intensity, better of two orientations | –
14 | GTGCAC_site9437 (dsDNA) DNA 1: CATTTTCATTTTAAGGTGCATTAATATTTATTTTAA DNA 2: TTAAAATAAATATTAATGCACCTTAAAATGAAAATG | 12.1 ln median PBM intensity, better of two orientations | –
15 | GTGCAC_site9836 (dsDNA) DNA 1: ATTATATACATTTTAGTGCATTACATAATAATATAA DNA 2: TTATATTATTATGTAATGCACTAAAATGTATATAAT | 12.1 ln median PBM intensity, better of two orientations | –
16 | GTGCAC_site9419 (dsDNA) DNA 1: ATATAAAGTATGTTAGTGCACTTTTTTTTTTTTTTT DNA 2: AAAAAAAAAAAAAAAGTGCACTAACATACTTTATAT | 12.1 ln median PBM intensity, better of two orientations | –

Row | Binder | binding signal (AP2-I D3) | binding signal (SIP2 D1)
17 | GTGCAC_site10559 (dsDNA) DNA 1: TAAATATTTTTATGGGTGCGTTCTTTAGCGCAATTT DNA 2: AAATTGCGCTAAAGAACGCACCCATAAAAATATTTA | – | 10.4 ln median PBM intensity, better of two orientations
18 | GTGCAC_site9879 (dsDNA) DNA 1: TTTTTATTTTTAGTAGTGCATTAATCATATGGTCAT DNA 2: ATGACCATATGATTAATGCACTACTAAAAATAAAAA | 12.1 ln median PBM intensity, better of two orientations | –
19 | GTGCAC_site9557 (dsDNA) DNA 1: TTTTTATGGACTATGGTGCATTATATATAAATGAAA DNA 2: TTTCATTTATATATAATGCACCATAGTCCATAAAAA | 12.3 ln median PBM intensity, better of two orientations | –
20 | GTGCAC_site10002 (dsDNA) DNA 1: TATAAGGCAATAATAGTGCACTAAGATATATAATGA DNA 2: TCATTATATATCTTAGTGCACTATTATTGCCTTATA | 12.3 ln median PBM intensity, better of two orientations | –
21 | GTGCAC_site9883 (dsDNA) DNA 1: ATTAAATGCAGTTCGGTGCATTAAGGTTATGATGAA DNA 2: TTCATCATAACCTTAATGCACCGAACTGCATTTAAT | 12.1 ln median PBM intensity, better of two orientations | –
22 | GTGCAC_site9835 (dsDNA) DNA 1: ATTTAAAAGTTGGTAGTGCATTAAAAATAACAAAAA DNA 2: TTTTTGTTATTTTTAATGCACTACCAACTTTTAAAT | 12.2 ln median PBM intensity, better of two orientations | –
23 | GTGCAC_site10253 (dsDNA) DNA 1: TTTTTTTTTTTGATGGTGCAATATATTAAATAGAAA DNA 2: TTTCTATTTAATATATTGCACCATCAAAAAAAAAAA | 12.2 ln median PBM intensity, better of two orientations | –
24 | GTGCAC_site10713 (dsDNA) DNA 1: TTTTTTTTTCAAGAGGTGCGTGTATTTTAACAAAAA DNA 2: TTTTTGTTAAAATACACGCACCTCTTGAAAAAAAAA | – | 10.3 ln median PBM intensity, better of two orientations
25 | GTGCAC_site9511 (dsDNA) DNA 1: TTTATATTTATGTAGGTGCATTTGTTTACAACATAT DNA 2: ATATGTTGTAAACAAATGCACCTACATAAATATAAA | – | 10.3 ln median PBM intensity, better of two orientations
26 | GTGCAC_site10254 (dsDNA) DNA 1: GTATATAAATAAATAGTGCATTATTAAAAATAATGT DNA 2: ACATTATTTTTAATAATGCACTATTTATTTATATAC | 12.2 ln median PBM intensity, better of two orientations | –
27 | GTGCAC_site10187 (dsDNA) DNA 1: TTAAAAAATAACAAGGTGCAAATAGGTTTATAAAAT DNA 2: ATTTTATAAACCTATTTGCACCTTGTTATTTTTTAA | – | 10.3 ln median PBM intensity, better of two orientations
28 | GTGCAC_site9493 (dsDNA) DNA 1: TAAAATTATTAATGAGTGCATTATAAAATCTATATA DNA 2: TATATAGATTTTATAATGCACTCATTAATAATTTTA | 12.1 ln median PBM intensity, better of two orientations | –
29 | GTGCAC_site9729 (dsDNA) DNA 1: GAACAAATTAAATAGGTGCATTAACATGTTCTATTT DNA 2: AAATAGAACATGTTAATGCACCTATTTAATTTGTTC | 12.2 ln median PBM intensity, better of two orientations | –
30 | GTGCAC_site10158 (dsDNA) DNA 1: AGGTTTTCTTAAATAGTGCATTATAACAAAAATAAA DNA 2: TTTATTTTTGTTATAATGCACTATTTAAGAAAACCT | 12.1 ln median PBM intensity, better of two orientations | –
31 | GTGCAC_site10014 (dsDNA) DNA 1: TTTACCTCTTCAATGGTGCAATAACTCAAAAATTTG DNA 2: CAAATTTTTGAGTTATTGCACCATTGAAGAGGTAAA | 12.3 ln median PBM intensity, better of two orientations | –
32 | GTGCAC_site10377 (dsDNA) DNA 1: GAATAAATATTAAATGTGCACTTGAATAGATGTAAA DNA 2: TTTACATCTATTCAAGTGCACATTTAATATTTATTC | – | 10.3 ln median PBM intensity, better of two orientations

Source: PMC11417369, “DNA sequence and chromatin differentiate sequence-specific transcription factor binding in the human malaria parasite Plasmodium falciparum”
